{"source": "paper PMC10092198", "origin": "cited, not measured here", "biological_target": "C3b (mC3b) C3b (Mus musculus) (UniProt P01027)", "sequence (P01027 566-669)": "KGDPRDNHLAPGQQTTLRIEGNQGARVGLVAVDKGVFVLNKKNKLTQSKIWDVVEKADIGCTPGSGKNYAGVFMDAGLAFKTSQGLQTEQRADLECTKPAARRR", "data": [{"substance": "Factor H (mFH) (from UniProt P06909)", "values": [{"measurement": "Kd", "value": 1, "unit": "µM"}]}]}
